T1: human Nrp2 b1b2 (human, UniProt O60462 275-595)
T1 construct: range 275-595; Range is that of the crystallization construct; also called Nrp2 b1b2 domains
T1 sequence (looked up): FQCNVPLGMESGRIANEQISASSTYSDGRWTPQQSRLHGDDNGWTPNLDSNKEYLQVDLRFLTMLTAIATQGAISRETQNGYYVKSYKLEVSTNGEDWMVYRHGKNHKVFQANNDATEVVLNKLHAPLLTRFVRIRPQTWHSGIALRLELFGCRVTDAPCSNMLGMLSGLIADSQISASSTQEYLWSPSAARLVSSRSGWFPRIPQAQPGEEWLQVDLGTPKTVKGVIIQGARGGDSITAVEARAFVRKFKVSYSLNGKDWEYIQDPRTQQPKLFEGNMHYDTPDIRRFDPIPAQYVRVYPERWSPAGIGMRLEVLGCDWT

T2: human Nrp1 protein (BIAcore analyte) (human, UniProt O14786 22-586, limits assumed)
T2 construct: no residue range for such an Nrp1 construct is printed; also called neuropilin-1
T2 sequence (looked up): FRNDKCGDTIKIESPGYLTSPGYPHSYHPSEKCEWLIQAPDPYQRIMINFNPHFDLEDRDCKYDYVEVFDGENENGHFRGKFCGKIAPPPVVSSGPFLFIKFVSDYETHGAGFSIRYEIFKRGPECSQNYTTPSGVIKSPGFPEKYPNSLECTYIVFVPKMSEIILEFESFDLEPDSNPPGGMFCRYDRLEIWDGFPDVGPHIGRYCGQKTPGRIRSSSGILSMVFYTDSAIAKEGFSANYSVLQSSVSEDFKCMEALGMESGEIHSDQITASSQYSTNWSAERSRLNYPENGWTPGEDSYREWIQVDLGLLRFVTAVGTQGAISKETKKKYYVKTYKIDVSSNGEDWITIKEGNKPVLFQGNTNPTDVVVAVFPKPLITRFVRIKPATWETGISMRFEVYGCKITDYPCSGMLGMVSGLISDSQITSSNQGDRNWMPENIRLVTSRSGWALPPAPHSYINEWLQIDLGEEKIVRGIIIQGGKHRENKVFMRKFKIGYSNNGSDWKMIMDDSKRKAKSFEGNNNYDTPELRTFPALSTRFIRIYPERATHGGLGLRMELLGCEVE

T3: human Nrp2 a1a2b1b2 (human, UniProt O60462 21-595, N-glycosylated (two sites within the a2 domain seen in the monoclinic crystal form))
T3 construct: range 1-595; The printed range begins at Met1 and so includes the native signal peptide, which is cleaved on secretion
T3 sequence: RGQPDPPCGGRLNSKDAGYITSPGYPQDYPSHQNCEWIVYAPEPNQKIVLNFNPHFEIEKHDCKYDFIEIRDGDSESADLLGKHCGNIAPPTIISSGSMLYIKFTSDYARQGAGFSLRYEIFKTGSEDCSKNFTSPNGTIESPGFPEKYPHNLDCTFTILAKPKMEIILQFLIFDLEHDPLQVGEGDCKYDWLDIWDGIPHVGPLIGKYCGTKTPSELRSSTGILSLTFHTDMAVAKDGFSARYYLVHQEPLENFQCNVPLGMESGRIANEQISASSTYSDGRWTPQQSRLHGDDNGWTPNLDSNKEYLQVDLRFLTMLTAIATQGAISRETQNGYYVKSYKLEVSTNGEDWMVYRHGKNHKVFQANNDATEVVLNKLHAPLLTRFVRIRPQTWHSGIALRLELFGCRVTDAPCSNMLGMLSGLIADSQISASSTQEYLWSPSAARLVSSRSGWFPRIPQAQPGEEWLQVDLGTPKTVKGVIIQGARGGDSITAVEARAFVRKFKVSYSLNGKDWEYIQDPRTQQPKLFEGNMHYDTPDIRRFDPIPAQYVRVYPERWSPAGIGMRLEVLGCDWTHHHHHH


How the values were obtained:
human Nrp2 b1b2 = biological target: T1, human Nrp2 b1b2; assay: BIAcore (SPR), 500 nM Nrp protein injected over immobilized IgG at 25 C
Description: (§1) Figure 11: FIG. 11—Analysis of anti-Nrp antibody binding kinetics. BIAcore kinetic analysis of anti-panNrp[4] antibody.

[1] = biological target: T2, human Nrp1 protein (BIAcore analyte); assay: BIAcore, IgG immobilized on the chip, human NRP protein injected, 25 C; Nrp1 (first of the two affinities)
Description: as §1

human Nrp2 a1a2b1b2 = biological target: T3, human Nrp2 a1a2b1b2; assay: BIAcore, IgG immobilized on the chip, human NRP protein injected, 25 C; Nrp2 (second of the two affinities)
Description: as §1

[2] = biological target: the molecule itself; assay: multi-angle light scattering, self-association

Binder	binding result (human Nrp2 b1b2)	Kd [1] [nM]	Kd (human Nrp2 a1a2b1b2) [nM]	binding result [2]
anti-panNrp^A antibody, clone YW68.11.26 (IgG) (antibody, V domains shown, Human IgG1 from a synthetic phage library; immobilized as IgG on the BIAcore chip) VH: EVQLVESGGGLVQPGGSLRLSCAASGFTISGYGIHWVRQAPGKGLEWVAYIYPDSGYTDYADSVKGRFTISADTSKNTAYLQMNSLRAEDTAVYYCAREDFRNRRRLWYVMDYWGQGT VL: DIQMTQSPSSLSASVGDRVTITCRASQDVSTAVAWYQQKPGKAPKLLIYSASFLYSGVPSRFSGSGSGTDFTLTDSSLQPEDFATYYCQQAWAYLTTFGQGTKVEIKR	no binding (tested: 500 nM)	0.21	0.15	–
full-length human Nrp2-ECD (a1a2b1b2c) (receptor, extracellular domain) RGQPDPPCGGRLNSKDAGYITSPGYPQDYPSHQNCEWIVYAPEPNQKIVLNFNPHFEIEKHDCKYDFIEIRDGDSESADLLGKHCGNIAPPTIISSGSMLYIKFTSDYARQGAGFSLRYEIFKTGSEDCSKNFTSPNGTIESPGFPEKYPHNLDCTFTILAKPKMEIILQFLIFDLEHDPLQVGEGDCKYDWLDIWDGIPHVGPLIGKYCGTKTPSELRSSTGILSLTFHTDMAVAKDGFSARYYLVHQEPLENFQCNVPLGMESGRIANEQISASSTYSDGRWTPQQSRLHGDDNGWTPNLDSNKEYLQVDLRFLTMLTAIATQGAISRETQNGYYVKSYKLEVSTNGEDWMVYRHGKNHKVFQANNDATEVVLNKLHAPLLTRFVRIRPQTWHSGIALRLELFGCRVTDAPCSNMLGMLSGLIADSQISASSTQEYLWSPSAARLVSSRSGWFPRIPQAQPGEEWLQVDLGTPKTVKGVIIQGARGGDSITAVEARAFVRKFKVSYSLNGKDWEYIQDPRTQQPKLFEGNMHYDTPDIRRFDPIPAQYVRVYPERWSPAGIGMRLEVLGCDWTDSKPTVETLGPTVKSEETTTPYPTEEEATECGENCSFEDDKDLQLPSGFNCNFDFLEEPCGWMYDHAKWLRTTWASSSSPNDRTFPDDRNFLRLQSDSQREGQYARLISPPVHLPRSPVCMEFQYQATGGRGVALQVVREASQESKLLWVIREDQGGEWKHGRIILPSYDMEYQIVFEGVIGKGRSGEIAIDDIRISTDVPLENCMEPISAFAGENFKVDIPEIHEREGYEDEIDDEYEVDWSNSSSATSGSGAPSTDKEKSWLYTLDPHHHHHH	–	–	–	no binding
human Nrp2 a2b1b2 (receptor, UniProt O60462 145-595, looked up, range 145-595; Purified on Ni-NTA; the tag of this construct is not described) GSEDCSKNFTSPNGTIESPGFPEKYPHNLDCTFTILAKPKMEIILQFLIFDLEHDPLQVGEGDCKYDWLDIWDGIPHVGPLIGKYCGTKTPSELRSSTGILSLTFHTDMAVAKDGFSARYYLVHQEPLENFQCNVPLGMESGRIANEQISASSTYSDGRWTPQQSRLHGDDNGWTPNLDSNKEYLQVDLRFLTMLTAIATQGAISRETQNGYYVKSYKLEVSTNGEDWMVYRHGKNHKVFQANNDATEVVLNKLHAPLLTRFVRIRPQTWHSGIALRLELFGCRVTDAPCSNMLGMLSGLIADSQISASSTQEYLWSPSAARLVSSRSGWFPRIPQAQPGEEWLQVDLGTPKTVKGVIIQGARGGDSITAVEARAFVRKFKVSYSLNGKDWEYIQDPRTQQPKLFEGNMHYDTPDIRRFDPIPAQYVRVYPERWSPAGIGMRLEVLGCDWT	–	–	–	no binding
